Assay results taken from article PMC7714071, “Interaction of amyloid beta with humanin and acetylcholinesterase is modulated by ATP” (FEBS Open Bio, 2020).

Assays:
[1] = tested on: Aβ in A549 cell-conditioned media; test: ELISA, oligomer versus total Aβ in A549 cell-conditioned media; assay type: cell-based, human; conditions: Fig. 8A
Method: Aβ ELISAs were carried out according to previous protocols for determining the oligomeric and monomeric concentrations of Aβ and as we recently reported. Briefly, total Aβ (monomers + oligomers) was measured by two‐site binding ELISAs using the capture 6E10 monoclonal antibody and 4G8‐conjugated biotin as the detection antibody, which recognizes a distinct epitope, then quantitated using streptavidin‐HRP.
Using the same samples, oligomerized Aβ was measured by a single‐site ELISA in which antibodies targeting the same primary sequence epitope were used for both capture (4G8) and detection (4G8‐biotin). Only oligomers are detected with this approach since the 4G8‐biotin antibody cannot bind to the captured monomer because the epitope is blocked by the 4G8 capture antibody. […]
(§1) Conditioned media were immunodepleted (ID) according to the methods previously described and our recently published report. […] The ID media were then carefully removed and analyzed for the presence of the target protein or peptide by ELISA. The same amount of protein (3 µL of 600 µg·mL^−1 total protein) of each sample was analyzed in the experiments. […]
Both epitopes recognized by the 6E10 and 4G8 antibodies have been previously shown to be exposed in Aβ aggregates. […] Fold change relative to controls using anti‐6E10 or anti‐4G8 antibodies incubated with 300 μL of the medium not incubated with cells was calculated. […]

H1299 cells = test: MTT cell viability, H1299; assay type: cell-based, human; conditions: AChE-ID media, 48 h, H1299; Fig. 7B
Method: Human NSCLC cell lines, A549 (ATCC CCL‐185) and H1299 (ATCC CRL‐5803), were purchased from the American Type Culture Collection (ATCC, Manassas, VA, USA). Cells were seeded as we reported earlier in 5 mL HyClone Dulbecco's modified Eagle's medium/nutrient mixture F‐12 (DMEM/F12) (GE Healthcare Life Sciences, Pittsburgh, PA, USA), supplemented with 10% Fetalgro bovine growth serum (FBS; RMBIO, Missoula, MT, USA), 50 U·mL^−1 penicillin, and […] streptomycin (Invitrogen, Life Technologies, Carlsbad, CA, USA) in 25‐cm^2 tissue culture flasks, and allowed to grow overnight in an incubator at 37 °C, 95% humidity, and 5% CO2. The cells were counted after trypan blue staining, with a hemocytometer.
The 3‐(4,5‐dimethylthiazol‐2‐yl)‐2,5‐diphenyl‐tetrazolium bromide (MTT) reduction assay (Sigma‐Aldrich), used to measure cell viability, was carried out as we reported earlier. […] The absorbance was measured at 570 nm in a plate reader. […]
as §1

B1: acetylcholinesterase (protein)
chain: EGREDAELLVTVRGGRLRGIRLKTPGGPVSAFLGIPFAEPPMGPRRFLPPEPKQPWSGVVDATTFQSVCYQYVDTLYPGFEGTEMWNPNRELSEDCLYLNVWTPYPRPTSPTPVLVWIYGGGFYSGASSLDVYDGRFLVQAERTVLVSMNYRVGAFGFLALPGSREAPGNVGLLDQRLALQWVQENVAAFGGDPTSVTLFGESAGAASVGMHLLSPPSRGLFHRAVLQSGAPNGPWATVGMGEARRRATQLAHLVGCPPGGTGGNDTELVACLRTRPAQVLVNHEWHVLPQESVFRFSFVPVVDGDFLSDTPEALINAGDFHGLQVLVGVVKDEGSYFLVYGAPGFSKDNESLISRAEFLAGVRVGVPQVSDLAAEAVVLHYTDWLHPEDPARLREALSDVVGDHNVVCPVAQLAGRLAAQGARVYAYVFEHRASTLSWPLWMGVPHGYEIEFIFGIPLDPSRNYTAEEKIFAQRLMRYWANFARTGDPNEPRDPKAPQWPPYTAGAQQYVSLDLRPLEVRRGLRAQACAFWNRFLPKLLSATDTLDEAERQWKAEFHRWSSYMVHWKNQFDHYSKQDRCSDL
- oligomer, % of total Aβ remaining after AChE ID ([1]; AChE-immunodepleted A549 media (non-depleted ~ 63%)): ~ 47%
- total Aβ remaining after AChE ID ([1]; AChE-immunodepleted A549 media): ~ 57%
- effect of AChE immunodepletion on cell viability (H1299 cells): no effect
